# Measured values reported in the supplement of paper PMC11246515.
# ± gives the standard deviation of the averaged measurements.
# Experiment: total protein half-life in vivo (active degradation + dilution); higher = more stable protein
# [1] = E. coli NCM3722 delta-clpP delta-lon delta-hslV, growth: N-lim chemostat, doubling time 6 h
# [2] = E. coli NCM3722 delta-lon, growth: N-lim chemostat, doubling time 6 h
# [3] = E. coli NCM3722 delta-smpB, growth: N-lim chemostat, doubling time 6 h
# [4] = wild type E. coli NCM3722, growth: C-lim chemostat, doubling time 3 h
# [5] = wild type E. coli NCM3722, growth: C-lim chemostat, doubling time 6 h
# [6] = wild type E. coli NCM3722, growth: C-lim chemostat, doubling time 12 h
# [7] = wild type E. coli NCM3722, growth: P-lim chemostat, doubling time 12 h
# [8] = E. coli NCM3722 delta-clpP, growth: N-lim chemostat, doubling time 6 h
# [9] = E. coli NCM3722 delta-hslV, growth: N-lim chemostat, doubling time 6 h
# [10] = wild type E. coli NCM3722, growth: N-lim chemostat, doubling time 6 h
# [11] = wild type E. coli NCM3722, growth: N-lim chemostat, doubling time 12 h
# [12] = wild type E. coli NCM3722, growth: P-lim chemostat, doubling time 6 h
Sequence,total protein half-life in vivo [1],total protein half-life in vivo [2],total protein half-life in vivo [3],total protein half-life in vivo [4],total protein half-life in vivo [5],total protein half-life in vivo [6],total protein half-life in vivo [7],total protein half-life in vivo [8],total protein half-life in vivo [9],total protein half-life in vivo [10],total protein half-life in vivo [11],total protein half-life in vivo [12]
MELIEKHVSFGGWQNMYRHYSQSLKCEMNVGVYLPPKAANEKLPVLYWLSGLTCNEQNFITKSGMQRYAAEHNIIVVAPDTSPRGSHVADADRYDLGQGAGFYLNATQAPWNEHYKMYDYIRNELPDLVMHHFPATAKKSISGHSMGGLGALVLALRNPDEYVSVSAFSPIVSPSQVPWGQQAFAAYLAENKDAWLDYDPVSLISQGQRVAEIMVDQGLSDDFYAEQLRTPNLEKICQEMNIKTLIRYHEGYDHSYYFVSSFIGEHIAYHANKLNMR,7.46 h,4.61 h,2.58 h,2.74 ± 0.72 h,7.26 ± 1 h,6.87 h,10.9 h,,,,,
MDNVELSPATRWGMIATGLLQGLVCYLLIAWLSGKNHSWIVYGVPATVAFSSVLLFSVISFKQKRLWGWLALVFIATLGMSGWLKWQTDGMNPWRAEKALWDFGCYLLLMAMLLLPWIQQSLRIRNDSSRYRYFYQSVWHNVLILLVIFLANGLTWLVLLLWSELFKLVGITFFNTLFFATDWFIYLTLGLVTALAVILARTQSRLIDSIQKLFTLIATGLLPLVSLLTLMFIITLPFTGLSAISRHISAAGLLLTLAFLQLILMAIVRDPQKASLPWTGPLRCLIKTALLVAPLYVFVAAWALWLRVAQYGWTVDRLQGVLAVLVLLVWSLGYFVSIVWRKGQNPVVLQGKVNLAVSLLVLVILVLLNSPVLDSMRISVNSHMARYQSGKNTSDQVTIYMLEQSGRYGRAALESLKSDAGFMKDPKRARDLLMALDGEQHLQQQVSEKVLADNVLIAPGSVKPDATFWSALIQDRYNVMTCIEKDACVLVEQDLNSDGQAERILFAFNDDRVIVYGFDSDRKEWDALDMSLLPNEITKEKLLTAAKDGKLGTKPKAWRDLVVDGERLNVNLNE,4.79 h,3.27 h,2.97 ± 0.52 h,3.78 h,3.86 ± 0.18 h,6.23 h,3.39 h,3.51 h,3.21 h,,,
MAKEKKRGFFSWLGFGQKEQTPEKETEVQNEQPVVEEIVQAQEPVKASEQAVEEQPQAHTEAEAETFAADVVEVTEQVAESEKAQPEAEVVAQPEPVVEETPEPVAIEREELPLPEDVNAEAVSPEEWQAEAETVEIVEAAEEEAAKEEITDEELETALAAEAAEEAVMVVPPAEEEQPVEEIAQEQEKPTKEGFFARLKRSLLKTKENLGSGFISLFRGKKIDDDLFEELEEQLLIADVGVETTRKIITNLTEGASRKQLRDAEALYGLLKEEMGEILAKVDEPLNVEGKAPFVILMVGVNGVGKTTTIGKLARQFEQQGKSVMLAAGDTFRAAAVEQLQVWGQRNNIPVIAQHTGADSASVIFDAIQAAKARNIDVLIADTAGRLQNKSHLMEELKKIVRVMKKLDVEAPHEVMLTIDASTGQNAVSQAKLFHEAVGLTGITLTKLDGTAKGGVIFSVADQFGIPIRYIGVGERIEDLRPFKADDFIEALFARED,5.949 ± 0.013 h,5.53 ± 0.3 h,5.61 ± 0.034 h,3.038 ± 0.019 h,5.835 ± 0.012 h,11.1 ± 1.8 h,11.92 ± 0.0035 h,6.16 ± 0.62 h,6.29 ± 0.82 h,5.94 ± 0.28 h,10.7 ± 0.25 h,5.64 ± 0.21 h
MRIPRIYHPEPLTSHSHIALCEDAANHIGRVLRMGPGQALQLFDGSNQVFDAEITSASKKSVEVKVLEGQIDDRESPLHIHLGQVMSRGEKMEFTIQKSIELGVSLITPLFSERCGVKLDSERLNKKLQQWQKIAIAACEQCGRNRVPEIRPAMDLEAWCAEQDEGLKLNLHPRASNSINTLPLPVERVRLLIGPEGGLSADEIAMTARYQFTDILLGPRVLRTETTALTAITALQVRFGDLG [P0AGL7],,5.41 ± 0.067 h,5.19 ± 0.13 h,2.98 ± 0.25 h,6.14 ± 1.9 h,10.1 ± 2.1 h,12.31 ± 0.12 h,5.91 ± 0.64 h,5.44 ± 0.24 h,5.45 ± 0.37 h,10.7 ± 0.42 h,6.05 ± 0.38 h
MKTVTVKDLVIGTGAPKIIVSLMAKDIASVKSEALAYREADFDILEWRVDHYADLSNVESVMAAAKILRETMPEKPLLFTFRSAKEGGEQAISTEAYIALNRAAIDSGLVDMIDLELFTGDDQVKETVAYAHAHDVKVVMSNHDFHKTPEAEEIIARLRKMQSFDADIPKIALMPQSTSDVLTLLAATLEMQEQYADRPIITMSMAKTGVISRLAGEVFGSAATFGAVKKASAPGQISVNDLRTVLTILHQA,3.99 ± 0.25 h,4.3 ± 0.52 h,3.62 ± 0.46 h,> 4 h,5.56 ± 1 h,9.4 ± 0.9 h,11 ± 0.46 h,4.15 ± 0.66 h,3.51 ± 0.0088 h,3.68 ± 0.14 h,5.5 ± 0.19 h,5.38 ± 0.21 h
MSSFQFEQIGVIRSPYKEKFAVPRQPGLVKSANGELHLIAPYNQADAVRGLEAFSHLWILFVFHQTMEGGWRPTVRPPRLGGNARMGVFATRSTFRPNPIGMSLVELKEVVCHKDSVILKLGSLDLVDGTPVVDIKPYLPFAESLPDASASYAQSAPAAEMAVSFTAEVEKQLLTLEKRYPQLTLFIREVLAQDPRPAYRKGEETGKTYAVWLHDFNVRWRVTDAGFEVFALEPR,5 ± 0.19 h,5.29 ± 0.31 h,5.06 ± 0.3 h,2.89 ± 0.41 h,5.88 ± 0.54 h,9.48 ± 0.38 h,13.5 ± 1.7 h,4.77 ± 0.35 h,4.77 ± 0.049 h,4.98 ± 0.3 h,10.1 ± 2.3 h,6.19 ± 0.56 h
MLKKCLPLLLLCTAPVFAKPVLTVYTYDSFAADWGPGPVVKKAFEADCNCELKLVALEDGVSLLNRLRMEGKNSKADVVLGLDNNLLDAASKTGLFAKSGVAADAVNVPGGWNNDTFVPFDYGYFAFVYDKNKLKNPPQSLKELVESDQNWRVIYQDPRTSTPGLGLLLWMQKVYGDDAPQAWQKLAKKTVTVTKGWSEAYGLFLKGESDLVLSYTTSPAYHILEEKKDNYAAANFSEGHYLQVEVAARTAASKQPELAQKFLQFMVSPAFQNAIPTGNWMYPVANVTLPAGFEKLTKPATTLEFTPAEVAAQRQAWISEWQRAVSR,4.4 ± 0.16 h,5.82 ± 0.072 h,6.33 ± 0.42 h,3.19 ± 0.21 h,6.11 ± 0.24 h,11 ± 0.89 h,12.9 ± 0.7 h,5.26 ± 0.44 h,6.48 ± 0.38 h,6.3 ± 0.13 h,14 ± 2.2 h,5.65 ± 0.23 h
